Patent US10307466B2, “Composition comprising sophorolipid, physiologically active substance and oil or fat, and method for producing the same” (SARAYA CO., LTD., priority 2014, dated 2019)

System: ICR mice
Experiment: Tail-flick test with 48° C. heat stimulation (enhancement of the analgesic effect of morphine)
Type: in vivo
Parameters: key: −: no analgesic effect was observed; ±: an analgesic effect comparable to the treatment control was observed; +: an analgesic effect comparable to the positive control was observed; ++: a higher analgesic effect than the positive control was observed; +++: a higher analgesic effect than “++” was observed
Method: For the evaluation of an analgesic effect, the tail-flick test was performed with 48° C. heat stimulation. In the tail-flick test, the tail of mice is exposed to heat stimulation, and latency for the animal to flick the tail is measured. The response latency is known to be delayed after administration of an analgesic drug such as morphine. The test is used for the evaluation of an analgesic effect.
ICR mice at 5 weeks old were subjected to daily simultaneous administration of an intraperitoneal dose of morphine (3 mg/kg) (morphine hydrochloride (trade name), Daiichi Sankyo) and an oral dose of one of the compositions of Examples 1 to 3 (300 mg/kg bLF) and Comparative Example 1 (300 mg/kg) for 5 days. At 30 and 90 minutes after the administration on day 5, the tail-flick test was performed.
As a treatment control, ICR mice at 5 weeks old were subjected to daily simultaneous administration of an intraperitoneal dose of morphine (3 mg/kg) and an oral dose of physiological saline for 5 days. The tail-flick test was then performed in the same manner as above.
As a negative control, daily simultaneous administration of an intraperitoneal dose of physiological saline and an oral dose of physiological saline was performed for 5 days. […]

B1: bovine lactoferrin (protein, UniProt P24627 20-708, looked up)
Lactotransferrin: APRKNVRWCTISQPEWFKCRRWQWRMKKLGAPSITCVRRAFALECIRAIAEKKADAVTLDGGMVFEAGRDPYKLRPVAAEIYGTKESPQTHYYAVAVVKKGSNFQLDQLQGRKSCHTGLGRSAGWIIPMGILRPYLSWTESLEPLQGAVAKFFSASCVPCIDRQAYPNLCQLCKGEGENQCACSSREPYFGYSGAFKCLQDGAGDVAFVKETTVFENLPEKADRDQYELLCLNNSRAPVDAFKECHLAQVPSHAVVARSVDGKEDLIWKLLSKAQEKFGKNKSRSFQLFGSPPGQRDLLFKDSALGFLRIPSKVDSALYLGSRYLTTLKNLRETAEEVKARYTRVVWCAVGPEEQKKCQQWSQQSGQNVTCATASTTDDCIVLVLKGEADALNLDGGYIYTAGKCGLVPVLAENRKSSKHSSLDCVLRPTEGYLAVAVVKKANEGLTWNSLKDKKSCHTAVDRTAGWNIPMGLIVNQTGSCAFDEFFSQSCAPGADPKSRLCALCAGDDQGLDKCVPNSKEKYYGYTGAFRCLAEDVGDVAFVKNDTVWENTNGESTADWAKNLNREDFRLLCLDGTRKPVTEAQSCHLAVAPNHAVVSRSDRAAHVKQVLLHQQALFGKNGKNCPDKFCLFKSETKNLLFNDNTECLAKLGGRPTYEEYLGTEYVTAIANLKKCSTSPLLEACAFLTR
30 minutes after administration on day 5, daily i.p. morphine 3 mg/kg + oral composition (300 mg/kg bLF) for 5 days
  Evaluation at 30 min (analgesic effect, tail-flick test): +
90 minutes after administration on day 5, daily i.p. morphine 3 mg/kg + oral composition (300 mg/kg bLF) for 5 days
  Evaluation at 90 min (analgesic effect, tail-flick test): +
